The subject of one experiment is VEGF promoter. The experiment in a line: VEGF promoter activity / VEGF expression in transfected U2OS cells. Format: cell-based, human. To be noted: transient transfection into U2OS cells with pcVEGF or pEVEGF. On the procedure:
To determine that this activation occurred at the transcriptional level, VEGF promoter activity assays were performed. A full length VEGF sequence, with or without its enhancer element (−2040˜+1), named pcVEGF or pEVEGF, was cloned into pcDNA3 plasmid. The cloned DNA with LITAF and/or STAT6(B) DNAs were transiently co-transfected into U2OS cells as described in FIG. 11a.

For the next experiment, the system named is TNF-α promoter. The experiment in a line: TNF-α promoter luciferase assay in transfected U2OS cells. The experiment is classed as cell-based, human. To be noted: transfection alone. As for the experimental part: In order to characterize the functional importance of LITAF in the LITAF/STAT6(B) complex, the effect of the complex was examined, with and without silenced LITAF, on TNF-α promoter activity. U2OS cells containing the TNF-promoter linked to luciferase were transiently transfected with LITAF alone, STAT6(B) alone, or both DNAs as described. TNF-α promoter activity was analyzed via luciferase activity. […] The TNF-α concentrations in the supernatants of these transfected THP-1 cells was also measured. […] They further indicate that LITAF might play a leading role in cytokine regulation after the LITAF-STAT6(B) complex translocates to the nucleus in the cells.

Experiment [1] relates to Porcine aortic endothelial (PAE) cells expressing VEGFR-2 spheroids. The experiment in a line: In vitro angiogenesis/tubulogenesis assay with supernatants of transfected THP-1 cells. The experiment is classed as cell-based. The following applies: supernatant from transfected THP-1 cells, 2 days. On the procedure: In Vitro Angiogenesis/Tubulogenesis assay of VEGF. To expand the observations that STAT6(B) is a potent stimulator of VEGF, and that the LITAF-STAT6(B) complex is inhibitory, culture supernatant fluids of LITAF-, STAT6(B)- or LITAF-STAT6(B)-transfected THP1 cells were tested in an in vitro angiogenesis/tubulogenesis assay. The assay was preformed as follows. Porcine aortic endothelial (PAE) cells expressing VEGFR-2 spheroids were generated as described in the art (Mayer and Rahimi, Ann. NY Acad. Sci, 995:200-207, 2003). A defined number of cells were suspended in DMEM containing 1% fetal bovine serum and 0-0.24% (w/v) carboxymethylcellulose (4000 centipoise) in non-adherent round-bottom 96-well plates under standard cell culture conditions. After 24 hours all cells formed one single spheroid per well (about 750 cells/spheroid). Spheroids were cultured for 2 days before using them in the in vitro angiogenesis assay in the following manner Spheroids containing about 750 cells were embedded in collagen gels. Eight volumes of collagen were mixed with 1 volume of 10×HEPES-buffered saline solution containing 10% 10×DMEM with phenol red. […]
It was determined whether VEGF, induced by STAT6(B), was active and capable of inducing angiogenesis and that the LITAF-STAT6(B) complex effect would inhibit this activity. […]

Experiment [2] relates to THP-1 cells. The experiment in a line: Western blot of cytokine protein levels in transfected THP-1 cells (FIG. 6d). The experiment is classed as cell-based, human. To be noted: overexpression in THP-1 cells. The source says:
(§1) Since both LITAF and STAT6(B) were found in the nucleus (FIG. 5), it was further investigated whether they act separately or in concert in mediating activation of TNF-α. While studying the complex, a cytokine array was employed to look at effects on other cytokines (FIG. 6a-6c.). The assay was preformed as follows. Using an empty vector as a control (FIG. 6b1), DNA of LITAF (full length, FIG. 6b2), STAT6(B) (full length; FIG. 6b3) or both full length of LITAF+STAT6(B) (FIG. 6b4), respectively, was transfected or co-transfected into THP-1 cells. Conditioned medium from each treated cell type was then prepared and incubated with membranes containing an array of 44 human protein cytokine antibodies (FIG. 6a). Autoradiographs were scanned, and the density of each cytokine at the corresponding position was determined. […] The relative intensities of each cytokine were normalized to control spots on the same membrane. Major increases or decreases among cytokines are represented graphically in FIG. 6c. […] In order to confirm these findings at the protein level we selected the four most strongly affected cytokines, IL-1α, IL-10, MCP-2 and RANTES and, under the same experimental conditions, measured their protein levels by Western blots.
A general note: In western blotting, separated proteins are transferred to a membrane and probed.

For experiment [3], the system named is THP-1 cells. Briefly: Human cytokine antibody array of conditioned medium from transfected THP-1 cells. The experiment is classed as cell-based. The following applies: single transfection.
Description: as §1

The test system of another experiment is MCP-1 promoter. The experiment in a line: Luciferase assay of MCP-1 promoter activity after transient transfection (FIG. 16). The experiment is classed as cell-based. The source says: To show this hypothesis, monocyte chemoattractant protein-1 (MCP-1), an important component of the inflammatory process, is selected to determine whether its LPS-triggered transcriptional regulation parallels observations for TNF. Recent studies have shown that the MCP-1 promoter activity can be regulated by NF-KB, STAT1, CEB/P homologous protein (CHOP), heme oxygenase-1 (HO-1) or activated protein C (APC) (Kim, et al, Clin Exp Immunol, 140:450-460, 2005; Jaruga, et al., Am J Physiol Gastrointest Liver Physiol, 287:G471-479, 2004, Abraham, et al., J Neuroimmunol, 160:219-221, 2005; Kanakiriya, et al., Am J Physiol Renal Physiol, 284:F:546-554, 2003). However, the precise LPS signaling pathways leading to MCP-1 induction have not been fully identified. In Examples 1-3, above, the regulation of LPS-induced inflammatory cytokine expression was shown. […] Thus, CTCCC represents a specific sequence in cytokine promoters to which LITAF binds for activity. […] Thus, short peptides with amino acids designed and synthesized based on the potential binding domain of LITAF and STAT6(B) jointly enhance MCP-1 promoter activity.

The source of these data is US20090062190A1, “Transcriptional Regulation of Cytokines by LITAF and STAT (6)(B)” (priority 2005, published 2009).

B1: STAT6(B): novel protein, Signal transducer and activator of transcription, SEQ ID NO: 2; full length DNA transfected (protein, listed as Homo sapiens)
chain: MARRNPSPPLQRLRDWGHHHCPCHPGPGWLSTDGEHPAILCQRPVHSLTGGPNPGSCSAQKSLSQEAQGGGFPEPLQAWAGTGCSDSFLSPTSSLLPAALLSLPVCHPDVTPYFIAVLLLLPHDPCPPFPPPFLPNPRALHGCLFLLTTAEQMGKDGRGYVPATIKMTVERGVWWYGQWVGQGLVVLICRKEGWHQPLVSHMYLLPSSRDQPLPTPELQMPTMVPSYDLGMAPDSSMSMQLGPDMVPQVYPPHSHSIPPYQGLSPEESVNVLSAFQEPHLQMPPSLGQMSLSFDQPHPQGLLPCQPQEHAVSSPDPLLCSDVTTVEDSCLSQPVTAFPQGTWIGEDIFPPLLPPTEQDLTKLLLEGQGESGGGSLGAQPLLQPSHYGQSGISMSHMDLRANPSW
Turning to B1, the “VEGF gene expression / transcription” value in the experiment with VEGF promoter is listed as “significantly upregulated”. Moreover, the “TNF-α promoter luciferase activity” value in the experiment with TNF-α promoter is recorded as “did not substantially change”. Also, the in vitro angiogenesis/tubulogenesis result in experiment [1] is “stimulated”. Besides, in the experiment on THP-1 cells [2], the “protein levels of IL-1α, IL-10, MCP-2 and RANTES by Western blot” value (from here on “protein levels of IL-1α”) is recorded as “modest induction of all except MCP-2”. For the same molecule, in the experiment with THP-1 cells [3], the “effect on GRO (cytokine array)” value is on record as “up-regulated”, the “effect on IL-1α (cytokine array)” value is recorded as “up-regulated”, the “effect on IL-10 (cytokine array)” value is reported as “up-regulated” and the “effect on RANTES (cytokine array)” value is recorded as “up-regulated”. In addition, in the experiment with MCP-1 promoter, the “MCP-1 promoter activity / MCP-1 expression” value is recorded as “significantly up-regulated”.

B2: LITAF: LPS-induced TNF-α factor, SEQ ID NO: 1; full length DNA transfected for overexpression (protein, listed as Homo sapiens)
chain: MSVPGPYQAATGPSSAPSAPPSYEETVAVNSYYPTPPAPMPGPTTGLVTGPDGKGMNPPSYYTQPAPIPNNNPITVQTVYVQHPITFLDRPIQMCCPSCNKMIVSQLSYNAGALTWLSCGSLCLLGVHSGLLLHPLLRGCPAGRGPLLSQLQSSPGHLQAFVGLSQTQREPGAAGSPFHLSSSFTPGGGSALVVSPLQGAHLHVFFWGEYVAKLTNLQTPEIAAWSRA
As for B2, the “VEGF gene expression / transcription” value with VEGF promoter is recorded as “did not have any effect”. Further, the “protein levels of IL-1α” value with THP-1 cells [2] is on record as “not altered”. In the experiment on THP-1 cells [3], the “effect on IL-1α (cytokine array)” value was “modestly up-regulated” and the “effect on TNF-α (cytokine array)” value is given as “modestly up-regulated”. Besides, the “MCP-1 promoter activity / MCP-1 expression” value in the experiment with MCP-1 promoter is recorded as “significantly up-regulated”.

B3: STAT6(A): known gene STAT6 (GenBank), referred to as STAT6(A) in this study (protein, UniProt P42226 2-847, looked up)
Signal transducer and …: SLWGLVSKMPPEKVQRLYVDFPQHLRHLLGDWLESQPWEFLVGSDAFCCNLASALLSDTVQHLQASVGEQGEGSTILQHISTLESIYQRDPLKLVATFRQILQGEKKAVMEQFRHLPMPFHWKQEELKFKTGLRRLQHRVGEIHLLREALQKGAEAGQVSLHSLIETPANGTGPSEALAMLLQETTGELEAAKALVLKRIQIWKRQQQLAGNGAPFEESLAPLQERCESLVDIYSQLQQEVGAAGGELEPKTRASLTGRLDEVLRTLVTSCFLVEKQPPQVLKTQTKFQAGVRFLLGLRFLGAPAKPPLVRADMVTEKQARELSVPQGPGAGAESTGEIINNTVPLENSIPGNCCSALFKNLLLKKIKRCERKGTESVTEEKCAVLFSASFTLGPGKLPIQLQALSLPLVVIVHGNQDNNAKATILWDNAFSEMDRVPFVVAERVPWEKMCETLNLKFMAEVGTNRGLLPEHFLFLAQKIFNDNSLSMEAFQHRSVSWSQFNKEILLGRGFTFWQWFDGVLDLTKRCLRSYWSDRLIIGFISKQYVTSLLLNEPDGTFLLRFSDSEIGGITIAHVIRGQDGSPQIENIQPFSAKDLSIRSLGDRIRDLAQLKNLYPKKPKDEAFRSHYKPEQMGKDGRGYVPATIKMTVERDQPLPTPELQMPTMVPSYDLGMAPDSSMSMQLGPDMVPQVYPPHSHSIPPYQGLSPEESVNVLSAFQEPHLQMPPSLGQMSLPFDQPHPQGLLPCQPQEHAVSSPDPLLCSDVTMVEDSCLSQPVTAFPQGTWIGEDIFPPLLPPTEQDLTKLLLEGQGESGGGSLGAQPLLQPSHYGQSGISMSHMDLRANPSW
On to B3, for which, in the experiment with THP-1 cells [2], the “protein levels of IL-1α” value is reported as “not altered”.
